Several values for one entry are separate records, joined by “and”; a condition that tells them apart may be missing. Equal entries are not always repeated. One block for each substance: values may come before it.
Columns and labels:
[1] = molecular target: Chlamy HAP2 (Chlamydomonas reinhardtii HAP2), purified monomer (Chlamydomonas reinhardtii); experiment: negative-stain EM; Chlamy HAP2 at pH 7.5 with 0.1% β-DDM, 2 h, 23 °C, gel filtered; 2D class averages
[2] = molecular target: Chlamy HAP2 (Chlamydomonas reinhardtii HAP2), purified monomer (Chlamydomonas reinhardtii); experiment: negative-stain EM; Chlamy HAP2 at pH 7.5 with 0.1% β-DDM, 26 h, 23 °C, gel filtered; 2D class averages
[3] = molecular target: Cyani HAP2 D1D2 (residues 28–457) (Cyanidioschyzon merolae); experiment: negative-stain EM; Cyani HAP2 D1D2 at pH 1.5 in 0.1% β-DDM, 26 h, 37 °C; 2D class averages
[4] = molecular target: Cyani HAP2 D1D2 (residues 28–457) (Cyanidioschyzon merolae); experiment: negative-stain EM; Cyani HAP2 D1D2 at pH 5.0 in 0.1% β-DDM, 26 h, 37 °C; 2D class averages
[5] = molecular target: Cyani HAP2 ectodomain (aa 28–564), from Drosophila S2 cells (Cyanidioschyzon merolae); experiment: negative-stain EM; Cyani HAP2 incubated with β-DDM at pH 5.0, 37 °C, 2 h, gel filtered; 2D class averages
[6] = molecular target: Cyani HAP2 ectodomain (aa 28–564), from Drosophila S2 cells (Cyanidioschyzon merolae); experiment: negative-stain EM; Cyani HAP2 incubated with β-DDM at pH 5.0, 37 °C, 26 h, gel filtered; 2D class averages
[7] = molecular target: Cyani HAP2 ectodomain (aa 28–564), from Drosophila S2 cells (Cyanidioschyzon merolae); experiment: negative-stain EM; gel filtration peak of Cyani HAP2 treated with β-DDM at pH 2.0, 37 °C; 2D class averages
[8] = molecular target: Cyani HAP2 ectodomain (aa 28–564), from Drosophila S2 cells (Cyanidioschyzon merolae); experiment: SEC-MALS; Superdex 200 10/300 GL; Cyani HAP2 trimer formed at pH 1.5 with β-DDM; protein conjugate model (glycoprotein and β-DDM components)
[9] = molecular target: Cyani HAP2 ectodomain (aa 28–564), from Drosophila S2 cells (Cyanidioschyzon merolae); experiment: SEC; incubated with 0.1% β-DDM, 500 mM NaCl at pH 1.5, 2.0, 3.5, 4.3 or 5.0, 37 °C, 26 h; Superdex 200 in buffer of the same pH, 0.01% β-DDM; monomer to trimer
[10] = molecular target: Cyani HAP2 ectodomain (residues 28–564) fusion loop mutant FL2 (L210A, L211A, F213A) (Cyanidioschyzon merolae); experiment: SEC; WT and mutant ectodomains (16 μM) with nine volumes of citrate buffer pH 3.5, 500 mM NaCl, 0.1% DDM, 37 °C; running buffer pH 3.5 with 0.01% DDM
[11] = molecular target: Cyani HAP2 ectodomain (residues 28–564) fusion loop mutant FL2 (L210A, L211A, F213A) (Cyanidioschyzon merolae); experiment: SEC; WT and mutant ectodomains (16 μM) with nine volumes of citrate buffer pH 4.3, 500 mM NaCl, 0.1% DDM, 2 or 4 h at 37 °C; running buffer pH 4.3 with 0.01% DDM
[12] = molecular target: Cyani HAP2 ectodomain (residues 28–564) fusion loop mutant FL3 (W147A, L148A) (Cyanidioschyzon merolae); experiment: SEC; WT and mutant ectodomains (16 μM) with nine volumes of citrate buffer pH 3.5, 500 mM NaCl, 0.1% DDM, 37 °C; running buffer pH 3.5 with 0.01% DDM
[13] = molecular target: Cyani HAP2 ectodomain (residues 28–564) fusion loop mutant FL3 (W147A, L148A) (Cyanidioschyzon merolae); experiment: SEC; WT and mutant ectodomains (16 μM) with nine volumes of citrate buffer pH 4.3, 500 mM NaCl, 0.1% DDM, 2 or 4 h at 37 °C; running buffer pH 4.3 with 0.01% DDM
[14] = molecular target: Cyani HAP2 ectodomain (residues 28–564), wild type, from Expi293F cells (Cyanidioschyzon merolae); experiment: SEC; WT and mutant ectodomains (16 μM) with nine volumes of citrate buffer pH 3.5, 500 mM NaCl, 0.1% DDM, 37 °C; running buffer pH 3.5 with 0.01% DDM
[15] = molecular target: Cyani HAP2 ectodomain (residues 28–564), wild type, from Expi293F cells (Cyanidioschyzon merolae); experiment: SEC; WT and mutant ectodomains (16 μM) with nine volumes of citrate buffer pH 4.3, 500 mM NaCl, 0.1% DDM, 2 or 4 h at 37 °C; running buffer pH 4.3 with 0.01% DDM
[16] = molecular target: Cyani HAP2 ectodomain (residues 28–564), wild type, from Expi293F cells (Cyanidioschyzon merolae); experiment: SEC; WT and mutant ectodomains (16 μM) with nine volumes of citrate buffer pH 4.7, 500 mM NaCl, 0.1% DDM; gel filtered immediately or after 2 h at 37 °C in pH 4.7 buffer with 0.01% DDM

Substance: Chlamy HAP2 (Chlamydomonas reinhardtii HAP2), purified monomer (domain or fragment)
stoichiometry N [1]: 2 and 3
stoichiometry N [2]: 3 and 6

Substance: Cyani HAP2 ectodomain (aa 28–564), from Drosophila S2 cells (domain or fragment)
stoichiometry N [5]: 2 and 3
stoichiometry N [6]: 3 and 6
stoichiometry N [7]: 3 and 6
stoichiometry N [8]: 3
stoichiometry N [9]: 3

Substance: Cyani HAP2 ectodomain (residues 28–564), wild type, from Expi293F cells (domain or fragment)
stoichiometry N [14]: 3
stoichiometry N [15]: 3
stoichiometry N [16]: 3

The remaining lines, values ahead:

stoichiometry N [3]: 3
stoichiometry N [4]: 3 and 2
Substance: Cyani HAP2 D1D2 (residues 28–457) (domain or fragment)

stoichiometry N [10]: 3
stoichiometry N [11]: 3
Substance: Cyani HAP2 ectodomain (residues 28–564) fusion loop mutant FL2 (L210A, L211A, F213A) (domain or fragment)

stoichiometry N [12]: 3
stoichiometry N [13]: 3
Substance: Cyani HAP2 ectodomain (residues 28–564) fusion loop mutant FL3 (W147A, L148A) (domain or fragment)

From article PMC9279424
